Measurements published in patent US20140274782A1, “AFFINITY REAGENTS AND METHODS FOR DETECTION, PURIFICATION, AND PROTEOMIC ANALYSIS OF METHYLATED PROTEINS” (The Board of Trustees of the Leland Stanford Junior …, priority 2013, published 2014).

Experiments:
G9a and GLP = target: T1, G9a and GLP (Homo sapiens, UniProt Q96KQ7+Q9H9B1); assay: Triple SILAC pull-down after UNC0638 treatment of 293T cells, DMSO/UNC0638 ratio of protein captured by 3×MBT; type: cell-based; design: endogenous in cells; host or cells: HEK 293T; conditions: for Relative to UNC0638 UNC Heavy / Relative to UNC0638 UNC Light: SILAC ratio DMSO/UNC0638 of protein pulled down with 3xMBT; for Relative to UNC0638 UNC Heavy: UNC0638 in heavy SILAC media; for Relative to UNC0638 UNC Light: UNC0638 in light SILAC media; for Relative to UNC0638 Average: average of UNC Light and UNC Heavy experiments;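 as to all read-outs here: mass spectrometry (Q-Exactive) SILAC quantitation, DMSO/UNC0638 ratio computed after subtracting 3×MBTD355N mutant pull-down background, only proteins with at least twofold 3×MBT over mutant signal considered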
T1 sequence (Q96KQ7 2-1210 limits assumed): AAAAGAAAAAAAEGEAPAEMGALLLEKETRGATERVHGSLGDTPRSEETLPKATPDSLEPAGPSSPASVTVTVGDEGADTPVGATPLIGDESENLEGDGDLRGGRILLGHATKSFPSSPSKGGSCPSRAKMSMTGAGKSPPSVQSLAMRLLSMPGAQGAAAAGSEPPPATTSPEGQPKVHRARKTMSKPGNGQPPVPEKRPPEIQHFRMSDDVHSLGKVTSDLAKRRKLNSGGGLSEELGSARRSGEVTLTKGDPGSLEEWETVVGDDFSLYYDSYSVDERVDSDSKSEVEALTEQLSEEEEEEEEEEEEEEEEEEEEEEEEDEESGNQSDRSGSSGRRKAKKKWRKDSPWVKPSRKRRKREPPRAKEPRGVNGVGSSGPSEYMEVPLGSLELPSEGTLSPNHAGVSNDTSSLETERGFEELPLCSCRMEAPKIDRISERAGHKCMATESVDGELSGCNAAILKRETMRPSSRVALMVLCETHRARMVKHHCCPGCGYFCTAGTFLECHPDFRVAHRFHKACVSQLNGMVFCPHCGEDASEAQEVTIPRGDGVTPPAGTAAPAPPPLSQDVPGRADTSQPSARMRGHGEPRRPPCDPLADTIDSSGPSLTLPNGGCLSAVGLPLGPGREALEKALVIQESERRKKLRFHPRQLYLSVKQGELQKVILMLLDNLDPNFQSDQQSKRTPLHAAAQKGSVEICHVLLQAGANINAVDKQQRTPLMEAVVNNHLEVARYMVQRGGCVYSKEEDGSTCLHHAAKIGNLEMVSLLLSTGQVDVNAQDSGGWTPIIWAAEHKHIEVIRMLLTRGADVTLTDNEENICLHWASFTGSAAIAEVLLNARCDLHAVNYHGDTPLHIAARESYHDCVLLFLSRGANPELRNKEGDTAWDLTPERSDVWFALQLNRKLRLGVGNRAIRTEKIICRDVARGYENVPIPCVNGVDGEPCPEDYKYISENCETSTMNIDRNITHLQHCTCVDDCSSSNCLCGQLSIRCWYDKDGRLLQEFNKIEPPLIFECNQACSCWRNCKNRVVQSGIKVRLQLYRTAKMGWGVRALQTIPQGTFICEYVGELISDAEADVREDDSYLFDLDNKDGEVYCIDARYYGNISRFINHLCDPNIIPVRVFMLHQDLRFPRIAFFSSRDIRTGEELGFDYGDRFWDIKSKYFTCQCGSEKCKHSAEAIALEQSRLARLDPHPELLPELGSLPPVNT
T1 sequence (Q9H9B1 2-1298 limits assumed): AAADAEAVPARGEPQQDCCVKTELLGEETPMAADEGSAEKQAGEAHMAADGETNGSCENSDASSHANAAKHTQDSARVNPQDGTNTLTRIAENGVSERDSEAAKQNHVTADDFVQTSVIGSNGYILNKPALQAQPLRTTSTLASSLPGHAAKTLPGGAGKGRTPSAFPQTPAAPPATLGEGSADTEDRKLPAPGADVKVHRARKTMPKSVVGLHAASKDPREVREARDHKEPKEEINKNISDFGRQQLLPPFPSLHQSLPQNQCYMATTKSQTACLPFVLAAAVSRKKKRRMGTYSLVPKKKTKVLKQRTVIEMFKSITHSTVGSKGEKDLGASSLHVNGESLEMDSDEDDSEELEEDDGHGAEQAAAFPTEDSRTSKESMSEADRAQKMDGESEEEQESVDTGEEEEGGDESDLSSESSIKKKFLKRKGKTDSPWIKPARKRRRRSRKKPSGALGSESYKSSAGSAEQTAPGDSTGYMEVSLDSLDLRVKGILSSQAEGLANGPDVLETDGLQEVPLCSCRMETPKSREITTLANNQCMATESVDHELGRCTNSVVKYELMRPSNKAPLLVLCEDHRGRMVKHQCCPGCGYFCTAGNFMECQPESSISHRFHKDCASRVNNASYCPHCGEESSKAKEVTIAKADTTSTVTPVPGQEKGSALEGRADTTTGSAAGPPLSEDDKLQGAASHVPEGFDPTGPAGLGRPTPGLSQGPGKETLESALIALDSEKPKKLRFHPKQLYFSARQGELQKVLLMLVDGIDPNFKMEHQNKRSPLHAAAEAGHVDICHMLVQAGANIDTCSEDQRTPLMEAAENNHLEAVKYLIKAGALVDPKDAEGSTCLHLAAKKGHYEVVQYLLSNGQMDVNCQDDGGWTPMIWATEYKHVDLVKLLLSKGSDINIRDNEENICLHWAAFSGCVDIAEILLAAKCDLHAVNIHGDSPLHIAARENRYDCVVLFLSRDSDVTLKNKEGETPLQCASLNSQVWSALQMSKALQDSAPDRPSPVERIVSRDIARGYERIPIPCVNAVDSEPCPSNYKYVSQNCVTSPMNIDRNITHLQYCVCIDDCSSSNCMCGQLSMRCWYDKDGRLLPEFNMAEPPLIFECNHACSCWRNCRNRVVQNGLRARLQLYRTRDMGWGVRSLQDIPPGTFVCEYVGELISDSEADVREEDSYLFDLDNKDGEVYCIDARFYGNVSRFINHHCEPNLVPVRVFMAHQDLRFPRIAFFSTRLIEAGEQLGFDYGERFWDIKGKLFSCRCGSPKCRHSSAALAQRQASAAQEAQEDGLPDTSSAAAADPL

3×MBT domain of L3MBTL1 = assay: Triple SILAC pull-down, 3xMBT/3xMBTD355N ratio (cytoplasmic, nuclear and chromatin fractions of 293T cells); type: binding, human; conditions: SILAC ratio, pull-down 3xMBT vs 3xMBTD355N; for 3xMBT/D355N UNC Heavy: experiment with UNC0638 in heavy SILAC media; for 3xMBT/D355N UNC Light: experiment with UNC0638 in light SILAC media;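 as to all read-outs here: proteins quantified with MaxQuant, requiring at least two unique peptides and quantification in both label directions, normalized to the mean of proteins from a digested loading control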

Molecule | Relative to UNC0638 UNC Heavy (G9a and GLP) | Relative to UNC0638 UNC Light (G9a and GLP) | Relative to UNC0638 Average (G9a and GLP) | 3xMBT/D355N UNC Heavy (3×MBT domain of L3MBTL1) | 3xMBT/D355N UNC Light (3×MBT domain of L3MBTL1)
DAZAP1 (protein, UniProt Q96EP5 1-407, looked up) DAZ-associated protein 1: MNNSGADEIGKLFVGGLDWSTTQETLRSYFSQYGEVVDCVIMKDKTTNQSRGFGFVKFKDPNCVGTVLASRPHTLDGRNIDPKPCTPRGMQPERTRPKEGWQKGPRSDNSKSNKIFVGGIPHNCGETELREYFKKFGVVTEVVMIYDAEKQRPRGFGFITFEDEQSVDQAVNMHFHDIMGKKVEVKRAEPRDSKSQAPGQPGASQWGSRVVPNAANGWAGQPPPTWQQGYGPQGMWVPAGQAIGGYGPPPAGRGAPPPPPPFTSYIVSTPPGGFPPPQGFPQGYGAPPQFSFGYGPPPPPPDQFAPPGVPPPPATPGAAPLAFPPPPSQAAPDMSKPPTAQPDFPYGQYAGYGQDLSGFGQGFSDPSQQPPSYGGPSVPGSGGPPAGGSGFGRGQNHNVQGFHPYRR | 0.01 log base 2 | 0.35 log base 2 | 0.18 log base 2 | 2.92 log base 2 | 2.10 log base 2
KHSRP (protein, UniProt Q92945 2-711, looked up) Far upstream element-binding …: SDYSTGGPPPGPPPPAGGGGGAGGAGGGPPPGPPGAGDRGGGGPGGGGPGGGSAGGPSQPPGGGGPGIRKDAFADAVQRARQIAAKIGGDAATTVNNSTPDFGFGGQKRQLEDGDQPESKKLASQGDSISSQLGPIHPPPRTSMTEEYRVPDGMVGLIIGRGGEQINKIQQDSGCKVQISPDSGGLPERSVSLTGAPESVQKAKMMLDDIVSRGRGGPPGQFHDNANGGQNGTVQEIMIPAGKAGLVIGKGGETIKQLQERAGVKMILIQDGSQNTNVDKPLRIIGDPYKVQQACEMVMDILRERDQGGFGDRNEYGSRIGGGIDVPVPRHSVGVVIGRSGEMIKKIQNDAGVRIQFKQDDGTGPEKIAHIMGPPDRCEHAARIINDLLQSLRSGPPGPPGGPGMPPGGRGRGRGQGNWGPPGGEMTFSIPTHKCGLVIGRGGENVKAINQQTGAFVEISRQLPPNGDPNFKLFIIRGSPQQIDHAKQLIEEKIEGPLCPVGPGPGGPGPAGPMGPFNPGPFNQGPPGAPPHAGGPPPHQYPPQGWGNTYPQWQPPAPHDPSKAAAAAADPNAAWAAYYSHYYQQPPGPVPGPAPAPAAPPAQGEPPQPPPTGQSDYTKAWEEYYKKIGQQPQQPGAPPQQDYTKAWEEYYKKQAQVATGGGPGAPPGSQPDYSAAWAEYYRQQAAYYGQTPGPGGPQPPPTQQGQQQAQ | 0.17 log base 2 | 0.16 log base 2 | 0.16 log base 2 | 3.34 log base 2 | 3.18 log base 2
AMOT (protein, UniProt Q4VCS5 1-1084, looked up) Angiomotin: MRNSEEQPSGGTTVLQRLLQEQLRYGNPSENRSLLAIHQQATGNGPPFPSGSGNPGPQSDVLSPQDHHQQLVAHAARQEPQGQEIQSENLIMEKQLSPRMQNNEELPTYEEAKVQSQYFRGQQHASVGAAFYVTGVTNQKMRTEGRPSVQRLNPGKMHQDEGLRDLKQGHVRSLSERLMQMSLATSGVKAHPPVTSAPLSPPQPNDLYKNPTSSSEFYKAQGPLPNQHSLKGMEHRGPPPEYPFKGMPPQSVVCKPQEPGHFYSEHRLNQPGRTEGQLMRYQHPPEYGAARPAQDISLPLSARNSQPHSPTSSLTSGGSLPLLQSPPSTRLSPARHPLVPNQGDHSAHLPRPQQHFLPNQAHQGDHYRLSQPGLSQQQQQQQQQHHHHHHHQQQQQQQPQQQPGEAYSAMPRAQPSSASYQPVPADPFAIVSRAQQMVEILSDENRNLRQELEGCYEKVARLQKVETEIQRVSEAYENLVKSSSKREALEKAMRNKLEGEIRRMHDFNRDLRERLETANKQLAEKEYEGSEDTRKTISQLFAKNKESQREKEKLEAELATARSTNEDQRRHIEIRDQALSNAQAKVVKLEEELKKKQVYVDKVEKMQQALVQLQAACEKREQLEHRLRTRLERELESLRIQQRQGNCQPTNVSEYNAAALMELLREKEERILALEADMTKWEQKYLEENVMRHFALDAAATVAAQRDTTVISHSPNTSYDTALEARIQKEEEEILMANKRCLDMEGRIKTLHAQIIEKDAMIKVLQQRSRKEPSKTEQLSCMRPAKSLMSISNAGSGLLSHSSTLTGSPIMEEKRDDKSWKGSLGILLGGDYRAEYVPSTPSPVPPSTPLLSAHSKTGSRDCSTQTERGTESNKTAAVAPISVPAPVAAAATAAAITATAATITTTMVAAAPVAVAAAAAPAAAAAPSPATAAATAAAVSPAAAGQIPAAASVASAAAVAPSAAAAAAVQVAPAAPAPVPAPALVPVPAPAAAQASAPAQTQAPTSAPAVAPTPAPTPTPAVAQAEVPASPATGPGPHRLSIPSLTCNPDKTDGPVFHSNTLERKTPIQILGQEPDAEMVEYLI | −0.03 log base 2 | 0.39 log base 2 | 0.18 log base 2 | 2.95 log base 2 | 2.44 log base 2
